# Reference: the supplement of paper PMC9112550, “Optimization of the antimicrobial peptide Bac7 by deep mutational scanning” (BMC Biology, 2022)
# Test system: Escherichia coli TOP10
# Experiment: shrunken log2 fold change of peptide-encoding DNA abundance (4.5 h post-induction vs induction); higher = less antimicrobial activity (less host growth inhibition)
# Conditions: time post-induction: 4.5 h; library: site-saturation at positions 5, 18, 19, 20
# 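Further: peptides expressed intracellularly from a pBAD plasmid library in pooled LB shake-flask culture, induced with 0.3% L-arabinose, DNA abundance read by NGS, three biological replicates, DESeq2 with apeglm shrinkage.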
row,Sequence,shrunken log2 fold change
1,RRIRVRPPRLPRPRPRPVRIPRP,0.337
2,RRIRVRPPRLPRPRPRPVSHPRP,0.173
3,RRIRVRPPRLPRPRPRPVSKPRP,-0.249
4,RRIRVRPPRLPRPRPRPVTRPRP,0.0259
5,RRIRVRPPRLPRPRPRPVVEPRP,-0.112
6,RRIRVRPPRLPRPRPRPVVIPRP,-0.401
7,RRIRVRPPRLPRPRPRPVWDPRP,0.142
8,RRIRVRPPRLPRPRPRPVWRPRP,0.309
9,RRIRVRPPRLPRPRPRPWCEPRP,-0.293
10,RRIRVRPPRLPRPRPRPWDSPRP,-0.181
11,RRIRVRPPRLPRPRPRPWDVPRP,-0.0177
12,RRIRVRPPRLPRPRPRPWEEPRP,-0.317
13,RRIRVRPPRLPRPRPRPWEIPRP,-0.00992
14,RRIRVRPPRLPRPRPRPWFDPRP,-0.439
15,RRIRVRPPRLPRPRPRPWFKPRP,0.0333
16,RRIRVRPPRLPRPRPRPWIGPRP,-0.166
17,RRIRVRPPRLPRPRPRPWILPRP,0.000714
18,RRIRVRPPRLPRPRPRPWKPPRP,0.0596
19,RRIRVRPPRLPRPRPRPWLNPRP,-0.106
20,RRIRVRPPRLPRPRPRPWMIPRP,-0.0467
21,RRIRVRPPRLPRPRPRPWNLPRP,-0.14
22,RRIRVRPPRLPRPRPRPWPGPRP,0.101

row,Sequence,shrunken log2 fold change
1,RRIRVRPPRLPRPRPRPWQIPRP,0.00686
2,RRIRVRPPRLPRPRPRPWQRPRP,0.0171
3,RRIRVRPPRLPRPRPRPWRAPRP,0.414
4,RRIRVRPPRLPRPRPRPWRTPRP,0.0312
5,RRIRVRPPRLPRPRPRPWSGPRP,-0.507
6,RRIRVRPPRLPRPRPRPWSHPRP,-0.125
7,RRIRVRPPRLPRPRPRPWSSPRP,-1.19
8,RRIRVRPPRLPRPRPRPWTDPRP,-0.0083
9,RRIRVRPPRLPRPRPRPWTLPRP,0.113
10,RRIRVRPPRLPRPRPRPWYAPRP,-0.299
11,RRIRVRPPRLPRPRPRPWYHPRP,-0.209
12,RRIRVRPPRLPRPRPRPWYSPRP,-0.183
13,RRIRVRPPRLPRPRPRPYCFPRP,-0.736
14,RRIRVRPPRLPRPRPRPYDGPRP,-0.00822
15,RRIRVRPPRLPRPRPRPYDHPRP,-0.347
16,RRIRVRPPRLPRPRPRPYGAPRP,0.162
17,RRIRVRPPRLPRPRPRPYGSPRP,-0.409
18,RRIRVRPPRLPRPRPRPYHPPRP,-0.406
19,RRIRVRPPRLPRPRPRPYHSPRP,-1.02
20,RRIRVRPPRLPRPRPRPYKTPRP,0.0577
21,RRIRVRPPRLPRPRPRPYKWPRP,-0.266
22,RRIRVRPPRLPRPRPRPYLDPRP,0.0545

row,Sequence,shrunken log2 fold change
1,RRIRVRPPRLPRPRPRPYMAPRP,-0.629
2,RRIRVRPPRLPRPRPRPYMLPRP,-0.71
3,RRIRVRPPRLPRPRPRPYMVPRP,-0.292
4,RRIRVRPPRLPRPRPRPYNEPRP,-0.429
5,RRIRVRPPRLPRPRPRPYNIPRP,-1.26
6,RRIRVRPPRLPRPRPRPYPEPRP,1.13
7,RRIRVRPPRLPRPRPRPYPMPRP,-0.299
8,RRIRVRPPRLPRPRPRPYPWPRP,-0.361
9,RRIRVRPPRLPRPRPRPYQQPRP,-0.323
10,RRIRVRPPRLPRPRPRPYQRPRP,-0.0149
11,RRIRVRPPRLPRPRPRPYSAPRP,-0.805
12,RRIRVRPPRLPRPRPRPYSNPRP,-0.676
13,RRIRVRPPRLPRPRPRPYSPPRP,-0.181
14,RRIRVRPPRLPRPRPRPYSSPRP,-0.644
15,RRIRVRPPRLPRPRPRPYWNPRP,-0.574
16,RRIRVRPPRLPRPRPRPYYKPRP,-0.67
17,RRIRWRPPRLPRPRPRPAAAPRP,1.21
18,RRIRWRPPRLPRPRPRPAAWPRP,0.121
19,RRIRWRPPRLPRPRPRPACVPRP,0.347
20,RRIRWRPPRLPRPRPRPACYPRP,0.443
21,RRIRWRPPRLPRPRPRPAEKPRP,0.192
22,RRIRWRPPRLPRPRPRPAFCPRP,0.143

row,Sequence,shrunken log2 fold change
1,RRIRWRPPRLPRPRPRPAFRPRP,-0.015
2,RRIRWRPPRLPRPRPRPAFVPRP,0.139
3,RRIRWRPPRLPRPRPRPAKAPRP,0.747
4,RRIRWRPPRLPRPRPRPAKFPRP,0.0295
5,RRIRWRPPRLPRPRPRPAKTPRP,0.0165
6,RRIRWRPPRLPRPRPRPALAPRP,0.555
7,RRIRWRPPRLPRPRPRPALLPRP,0.584
8,RRIRWRPPRLPRPRPRPAMGPRP,0.161
9,RRIRWRPPRLPRPRPRPAMIPRP,-0.0987
10,RRIRWRPPRLPRPRPRPANMPRP,-0.0899
11,RRIRWRPPRLPRPRPRPANPPRP,0.165
12,RRIRWRPPRLPRPRPRPANVPRP,-0.624
13,RRIRWRPPRLPRPRPRPAPPPRP,0.579
14,RRIRWRPPRLPRPRPRPAQEPRP,0.149
15,RRIRWRPPRLPRPRPRPAQPPRP,0.236
16,RRIRWRPPRLPRPRPRPARGPRP,0.687
17,RRIRWRPPRLPRPRPRPARHPRP,0.31
18,RRIRWRPPRLPRPRPRPARMPRP,0.362
19,RRIRWRPPRLPRPRPRPARRPRP,0.495
20,RRIRWRPPRLPRPRPRPASGPRP,0.461
21,RRIRWRPPRLPRPRPRPAVEPRP,0.497
22,RRIRWRPPRLPRPRPRPAVIPRP,0.0266

row,Sequence,shrunken log2 fold change
1,RRIRWRPPRLPRPRPRPAWYPRP,0.0415
2,RRIRWRPPRLPRPRPRPAYGPRP,-0.213
3,RRIRWRPPRLPRPRPRPAYIPRP,-0.0757
4,RRIRWRPPRLPRPRPRPAYPPRP,0.00826
5,RRIRWRPPRLPRPRPRPCALPRP,-0.321
6,RRIRWRPPRLPRPRPRPCCNPRP,-0.0508
7,RRIRWRPPRLPRPRPRPCDTPRP,-0.165
8,RRIRWRPPRLPRPRPRPCDYPRP,-0.0182
9,RRIRWRPPRLPRPRPRPCFMPRP,-0.0873
10,RRIRWRPPRLPRPRPRPCGNPRP,0.0696
11,RRIRWRPPRLPRPRPRPCIEPRP,-0.0674
12,RRIRWRPPRLPRPRPRPCKYPRP,-0.509
13,RRIRWRPPRLPRPRPRPCLDPRP,-0.0586
14,RRIRWRPPRLPRPRPRPCMGPRP,-0.0956
15,RRIRWRPPRLPRPRPRPCPAPRP,-0.0319
16,RRIRWRPPRLPRPRPRPCPRPRP,-0.0457
17,RRIRWRPPRLPRPRPRPCQHPRP,-0.116
18,RRIRWRPPRLPRPRPRPCSCPRP,0.0968
19,RRIRWRPPRLPRPRPRPCTDPRP,0.0992
20,RRIRWRPPRLPRPRPRPCTLPRP,-0.842
21,RRIRWRPPRLPRPRPRPCTMPRP,-0.00405
